According to patent publication US20230038638A1, “COMPLEMENT FACTOR I-RELATED COMPOSITIONS AND METHODS” (published 2023):
Positions count from the first letter of the chain named. Like-named read-outs stand apart in the source and are kept apart here.

Key:
[1] = target: soluble human C3b (human) (UniProt P01024)
[2] = target: soluble human C3b (human) (UniProt P01024); remark: listed apart in the source
[3] = target: soluble human C3b (human) (UniProt P01024); remark: listed apart in the source
human C4b (human) [4] = target: T1, human C4b (human) (UniProt P0C0L5)
T1 sequence: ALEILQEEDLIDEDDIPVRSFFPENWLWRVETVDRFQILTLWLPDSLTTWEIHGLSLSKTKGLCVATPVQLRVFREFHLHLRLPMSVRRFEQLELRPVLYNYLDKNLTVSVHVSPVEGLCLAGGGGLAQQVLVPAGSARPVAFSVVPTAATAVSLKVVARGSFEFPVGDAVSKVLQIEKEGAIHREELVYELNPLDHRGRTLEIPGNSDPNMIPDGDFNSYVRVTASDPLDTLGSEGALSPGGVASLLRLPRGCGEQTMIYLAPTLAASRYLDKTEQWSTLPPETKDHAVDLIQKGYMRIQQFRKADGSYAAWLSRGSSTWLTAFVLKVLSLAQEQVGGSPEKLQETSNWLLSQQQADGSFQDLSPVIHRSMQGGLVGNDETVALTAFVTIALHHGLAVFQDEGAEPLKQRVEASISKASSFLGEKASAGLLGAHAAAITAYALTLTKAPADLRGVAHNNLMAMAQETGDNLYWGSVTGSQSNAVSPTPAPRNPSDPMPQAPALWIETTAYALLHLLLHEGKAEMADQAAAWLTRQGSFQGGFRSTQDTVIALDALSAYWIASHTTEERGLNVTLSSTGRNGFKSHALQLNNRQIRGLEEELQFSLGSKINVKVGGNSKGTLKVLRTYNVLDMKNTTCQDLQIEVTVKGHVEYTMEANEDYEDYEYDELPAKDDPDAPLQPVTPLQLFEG

[5] = target: soluble human C3b (human) (UniProt P01024); remark: listed apart in the source
human C4b (human) [6] = target: T1, human C4b (human); remark: listed apart in the source
C3b [7] = target: T2, C3b (human, UniProt P01024)
C3b [8] = target: T2, C3b; remark: listed apart in the source
C3b [9] = target: T2, C3b; remark: listed apart in the source
C4b [10] = target: T3, C4b (human, UniProt P0C0L4)
T3 sequence: T1 sequence with T151A, G317D, L364P, S365C, I368L, H369D, S420N, A451V, R454L, A530S

C3b [11] = target: T2, C3b; remark: listed apart in the source
C3b [12] = target: T2, C3b; remark: listed apart in the source
C4b [13] = target: T3, C4b; remark: listed apart in the source
C3b [14] = target: T2, C3b; remark: listed apart in the source
[15] = target: CFI-HSA (human serum albumin fused to the N-terminal end of wild type CFI) (human)
C4b [16] = target: T3, C4b; assay: cell-based or functional assay
C3b [17] = target: T2, C3b; assay: cell-based or functional assay

“CFI-HSA (E416A; D425R; E457G; N531G variant) (enzyme)” showed a Fold-decrease EC50 (iC3b) vs. CFI WT [1] of 8.03 fold.

Molecule CFI-HSA (E416A; N531G variant) (enzyme) has a Fold-decrease EC50 (iC3b) vs. CFI WT [1] of 3.67 fold.

CFI-HSA (E457G; N531G variant) (enzyme) gave a Fold-decrease EC50 (iC3b) vs. CFI WT [1] of 3.86 fold.

With “CFI-HSA (hCR1; CCP15; CCP16; CCP17 C-terminal fusion) (enzyme)” the Fold-decrease EC50 (iC3b) vs. CFI WT [1] was 0.79 fold.

“CFI-HSA (human serum albumin fused to the N-terminal end of wild type CFI)” gave a C3b-enriched AP hemolytic assay IC50 [2] of 26.4 nM.

“CFI-HSA (human serum albumin fused to the N-terminal end of wild type CFI) (enzyme)” gave a C3b cleavage EC50 [3] of 25.5 nM and a C4b cleavage EC50 (human C4b (human) [4]) of 365 nM.

Molecule CFI-HSA variant D425A (enzyme) has an iC3b Screen Ref Fold (fold vs CFI-HSA wild type) [5] of 1.07, a C4b Screen Ref Fold (fold vs CFI-HSA wild type) (human C4b (human) [6]) of 2.71 and a C3b cleavage, % Activity (C3b [7]) of 103%. The C3dg formation in activated human serum (TRIFMA), EC50 WT/EC50Variant (C3b [8]) was 1.7 and the C3b cleavage rate, kmut/kwt (C3b [9]) was 1.

Molecule CFI-HSA variant D425R (enzyme) has an iC3b Screen Ref Fold (fold vs CFI-HSA wild type) [5] of 1.46, a C4b Screen Ref Fold (fold vs CFI-HSA wild type) (human C4b (human) [6]) of 0.69 and a C3b cleavage, % Activity (C3b [7]) of 104%. For the same molecule, the C3dg formation in activated human serum (TRIFMA), EC50 WT/EC50Variant (C3b [8]) was 4.2 and the C3b cleavage rate, kmut/kwt (C3b [9]) was 2.

Molecule “CFI-HSA variant E457G + CR1(CCP1-3) (from UniProt P17927) (enzyme)” has a CP IC50, classical pathway hemolysis of sensitised sheep red cells (C4b [10]) of 122 nM and an AP IC50, alternative pathway hemolysis (C3b [11]) of 86 nM.

CFI-HSA variant N531G + P535A (enzyme) showed a C3dg formation (TRIFMA), EC50 against wild type (FIG. 10) (C3b [12]) of 18 fold, a C3b cleavage, % Activity (C3b [7]) of 120% and a C3dg formation in activated human serum (TRIFMA), EC50 WT/EC50Variant (C3b [8]) of 26.2. It also gave a C3b cleavage rate, kmut/kwt (C3b [9]) of 3.

Molecule “CFI-HSA variant N531G; P535A with hCR1; CCP15; CCP16; CCP17 C-terminal fusion (enzyme)” has a C4c No Cofactor EC50 (C4b cleavage, C4c ELISA) (C4b [13]) of 50.3 nM.

“CFI-HSA variant P535G with hCR1; CCP15; CCP16; CCP17 C-terminal fusion (enzyme)” gave a C4c No Cofactor EC50 (C4b cleavage, C4c ELISA) (C4b [13]) of 160 nM.

CFI-HSA variant Y408L + N531G (enzyme) gave a C3b cleavage, % Activity (C3b [7]) of 123%, a C3dg formation in activated human serum (TRIFMA), EC50 WT/EC50Variant (C3b [8]) of 0.6 and a C3b cleavage rate, kmut/kwt (C3b [9]) of 3.

“CFI-HSA variant Y408L; E457G; E461Q; R462K; N531G with hCR1; CCP15; CCP16; CCP17 C-terminal fusion (enzyme)” gave a C4c No Cofactor EC50 (C4b cleavage, C4c ELISA) (C4b [13]) of 106 nM.

For “CFI-HSA variant Y408L; E457G; N531G with hCR1; CCP15; CCP16; CCP17 C-terminal fusion (enzyme)”, the C4c No Cofactor EC50 (C4b cleavage, C4c ELISA) (C4b [13]) was 156 nM.

Molecule “CFI-HSA variant Y408L; E457G; N531G; P535G with hCR1; CCP15; CCP16; CCP17 C-terminal fusion (enzyme)” has a C4c No Cofactor EC50 (C4b cleavage, C4c ELISA) (C4b [13]) of 97.7 nM.

With “CFI-HSA variant Y408L; E457G; R462K; F464Y; N531G with hCR1; CCP15; CCP16; CCP17 C-terminal fusion (enzyme)” the C4c No Cofactor EC50 (C4b cleavage, C4c ELISA) (C4b [13]) was 104 nM.

With “CFI-HSA variant Y408L; N531G with hCR1; CCP15; CCP16; CCP17 C-terminal fusion (enzyme)” the C4c No Cofactor EC50 (C4b cleavage, C4c ELISA) (C4b [13]) was 57.1 nM.

Molecule “CFI-HSA variant Y408L; N531G; P535G with hCR1; CCP15; CCP16; CCP17 C-terminal fusion (enzyme)” has a C4c No Cofactor EC50 (C4b cleavage, C4c ELISA) (C4b [13]) of 50.1 nM.

“HSA + CfI + GGSSGG (SEQ ID NO: 6) + CR1(ccp15-17) (enzyme)” gave a C3c No Cofactor EC50 (C3b cleavage, iC3b ELISA) (C3b [14]) of 33.7 nM and a C4c No Cofactor EC50 (C4b cleavage, C4c ELISA) (C4b [13]) of 63.5 nM.

In the case of “recombinant human furin (from UniProt P09958) (enzyme)”, the activation (cleavage) of CFI-HSA by furin [15] is reported as over 90%.

B1: Plasma derived, wild type human CFI (enzyme)
chain: KVTYTSQEDLVEKKCLAKKYTHLSCDKVFCQPWQRCIEGTCVCKLPYQCPKNGTAVCATNRRSFPTYCQQKSLECLHPGTKFLNNGTCTAEGKFSVSLKHGNTDSEGIVEVKLVDQDKTMFICKSSWSMREANVACLDLGFQQGADTQRRFKLSDLSINSTECLHVHCRGLETSLAECTFTKRRTMGYQDFADVVCYTQKADSPMDDFFQCVNGKYISQMKACDGINDCGDQSDELCCKACQGKGFHCKSGVCIPSQYQCNGEVDCITGEDEVGCAGFASVTQEETEILTADMDAERRRIKSLLPKLSCGVKNRMHIRRKRIVGGKRAQLGDLPWQVAIKDASGITCGGIYIGGCWILTAAHCLRASKTHRYQIWTTVVDWIHPDLKRIVIEYVDRIIFHENYNAGTYQNDIALIEMKKDGNKKDCELPRSIPACVPWSPYLFQPNDTCIVSGWGREKDNERVFSLQWGEVKLISNCSKFYGNRFYEKEMECAGTYDGSIDACKGDSGGPLVCMDANNVTYVWGVVSWGENCGKPEFPGVYTKVANYFDWISYHVGRPFISQYNV
For B1, the C3b-enriched AP hemolytic assay IC50 [2] was 12.9 nM, the “CP IC50, classical pathway hemolysis of sensitised sheep red cells” value (C4b [16]) was 135 nM and the “AP IC50, alternative pathway hemolysis” value (C3b [17]) was 6.05 nM. The C3b cleavage EC50 [3] was 25.3 nM and the C4b cleavage EC50 (human C4b (human) [4]) was 385 nM.
